# Measurements published in PMC8540780, “Biochemical and Molecular Characterization of the Rice Chalcone Isomerase Family” (Plants, 2021).
# B1: OsCHI3 (Oryza sativa Japonica Group) (protein)
# chain: MAAVSEVEVDGVVFPPVARPPGSGHAHFLAGAGVRGVEIAGNFIKFTAIGVYLEEGAAVPALAKKWAGKSADELAADAAFFRDVVTGDFEKFTRVTMILPLTGEQYSDKVTENCVAAWKAAGVYTDAEGAAADKFKEAFKPHSFPPGASILFTHSPPGVLTVAFSKDSSVPEGAVAAAAIENRALCEAVLDSIIGEHGVSPAAKRSIAARVSQLLKAESTGDVAAAEPAPVSA
# notes: 233 aa; 28 kDa on SDS-PAGE
# Tests used:
# purified protein [1] = substrate: O=C(/C=C/c1ccc(O)cc1)c1ccc(O)cc1O; assay: purified protein; settings: 50 mM Tris pH 7.5, 500 µg enzyme (b24 prints 440 µg/mL for the activity test), substrate 1–50 µM
# purified protein [2] = substrate: O=C(/C=C/c1ccc(O)cc1)c1c(O)cc(O)cc1O; assay: purified protein; type: biochemical, Oryza sativa; settings: 50 mM Tris pH 7.5, 0.1 µg enzyme per mL, substrate 1–50 µM
protein,measurement,setting,value
B1,Km,purified protein [1],50.95 ± 4.83 µM
same,Vmax,purified protein [1],0.000212 µmol/min/mg
same,kcat,purified protein [1],9.21e-05 s⁻¹
same,kcat/Km,purified protein [1],1.81 M⁻¹ s⁻¹
same,Km,purified protein [2],11.60 ± 0.78 µM
same,Vmax,purified protein [2],160 µmol/min/mg
same,kcat,purified protein [2],69.3 s⁻¹
same,kcat/Km,purified protein [2],5.98e+06 M⁻¹ s⁻¹
